± gives the standard deviation of the averaged measurements.
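Note: PSI is a weighted mean of sequencing reads over stability bins, variants kept only with over 10 reads, mCherry proximal and sfGFP distal, peptide attached via GGGS linker.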

In the series the test system is Saccharomyces cerevisiae. The series is described as follows: protein stability index of tFT-peptide fusion (C-terminal peptide) (PSI (0-1 scale)); higher = more stable (slower turnover). To be noted: genetic background: wild type; temperature: 30 C.
LVLFSRCSPFFL registered a protein stability index of 0.659 ± 0.024. In turn, LVLVASVGVGRV registered a protein stability index of 0.556 ± 0.057.

LVSEGKRLDVVF returned a protein stability index of 0.581 ± 0.076. The sequence LVSGRRWMLGSG gave a protein stability index of 0.6451 ± 0.0023. Then LVSQLLALCLSV, with 0.5358 ± 0.00089; and LVVALGFDDRAC, with 0.623 ± 0.027; and LVVLGVRGGGGG, with 0.701 ± 0.047. LWDQFAVSCFGG came in with a protein stability index of 0.745 ± 0.016. LWGAGAGPEDVG showed a protein stability index of 0.6983 ± 0.0028. In the case of LWGAIGHGNAGP, the protein stability index worked out at 0.684 ± 0.029. LWGFVEAIGSVL had a protein stability index of 0.705 ± 0.18. Take LWGGGVGRVRGV: the protein stability index worked out at 0.658 ± 0.022. Then LWGMSDQGGGFR, with 0.611 ± 0.083.

Take LWLPSTSLIPLI: the protein stability index was determined as 0.641 ± 0.018. LWRSRSCSGHSF gave a protein stability index of 0.651 ± 0.053.

On to LYDAALHTKIFR, for which the protein stability index stood at 0.634 ± 0.012. LYDCQHTFILSR showed a protein stability index of 0.643 ± 0.047. For the sequence LYHCFRCYYMPW, the protein stability index was 0.637 ± 0.033.

Turning to LYIHFIRSYPTI, the protein stability index worked out at 0.6354 ± 0.0036. Then LYIYSPFGLFAF, with 0.562 ± 0.0082. The same measure for LYPRLAPPTPPS: 0.686 ± 0.026; for LYTTLCLRSPPH: 0.671 ± 0.026; for LYVIGGTDLVGG: 0.72 ± 0.04. Take MCNPAYVTSGVI: the protein stability index came out at 0.6987 ± 0.0054. The same measure for MCPRFCPPLRSF: 0.686 ± 0.084. With MCWFDVSEWGLG, the protein stability index was 0.754 ± 0.091. MFVRRTDRGGIV yielded a protein stability index of 0.7312 ± 0.0069. Consider MGCSARLPLLSS, for which the protein stability index came out at 0.7215 ± 0.0016. Sequence MGDGRRMDGVWG had a protein stability index of 0.6 ± 0.03. As to MGGGGGLGGGDG, the protein stability index turned out to be 0.613 ± 0.072. Consider MGGYLFLHVGYV, for which the protein stability index was determined as 0.614 ± 0.062. In turn, MGIKSCSSTCVT registered a protein stability index of 0.857 ± 0.2. MGTRRVGRQGWG gave a protein stability index of 0.708 ± 0.031. In turn, MINYGLARKKAR displayed a protein stability index of 0.733 ± 0.02. MKKIGNKLKKEK displayed a protein stability index of 0.657 ± 0.099. On to MKKKTTKTKIKK, for which the protein stability index was determined as 0.7205 ± 0.0051. The same measure for MLGGGGGVRVLG: 0.706 ± 0.011.

With MLYFSGLQVTIL, the protein stability index came out at 0.622 ± 0.0075. Then MPTSYDGCDRGH, with 0.713 ± 0.011; and MRCQFDGAVGVC, with 0.663 ± 0.074. In the case of MRKGKGGGPRRR, the protein stability index is 0.699 ± 0.023. MRPRTSKKPQLE came in with a protein stability index of 0.744 ± 0.044. The sequence MRRKKSGPEYQR displayed a protein stability index of 0.678 ± 0.059. In turn, MRSRWFAREFGK showed a protein stability index of 0.659 ± 0.07.

As to MSCLSDFPVCFL, the protein stability index was 0.726 ± 0.037.

The sequence MSGVWLWVGGGG returned a protein stability index of 0.73 ± 0.078.

On to MSVRGGEGVVGE, for which the protein stability index is 0.614 ± 0.025.

The sequence MSWLGLGLWSVF displayed a protein stability index of 0.808 ± 0.069.

Consider MVLTVIHFDCDI, for which the protein stability index was determined as 0.596 ± 0.014.

MVTGELVQLLLV: the protein stability index came to 0.528 ± 0.0048. As for MWVGLWSVGLCG, the protein stability index was determined as 0.717 ± 0.011. MYAWPISPRPLL had a protein stability index of 0.738 ± 0.052. MYTNYLYDVAVE: the protein stability index amounted to 0.597 ± 0.044. In the case of NARPSPRSHSLE, the protein stability index is 0.6921 ± 0.0065. For the sequence NDGLKVLKETSP, the protein stability index is 0.675 ± 0.027.

For NDKPKKKYRKTR, the protein stability index stood at 0.64 ± 0.018. The same measure for NEVDSRGWTTLA: 0.59 ± 0.021; for NFAIYPTLYKYD: 0.667 ± 0.016; for NFDNGAGLNRGG: 0.6733 ± 0.0059.

Take NFEVHRCGISLR: the protein stability index was 0.681 ± 0.0075. As to NGDRGQWGMNQR, the protein stability index is 0.708 ± 0.028. In the case of NGLLRPALVPNY, the protein stability index was 0.693 ± 0.012. The same measure for NGLRILICNTTP: 0.697 ± 0.03. Turning to NGPYKAGSIVLI, the protein stability index was determined as 0.664 ± 0.027.
